The values that follow come from patent publication US6235711A, “Cell adhesion ihibiting compounds” (Zeneca Limited, priority 1996, dated 2001).

Experiment [1] has as its target T1, VCAM-1-IgG fusion protein (Homo sapiens, UniProt P05556+P13612).
T1 construct: host or cells: HL-60 cells (endogenous integrin); VCAM-1-IgG fusion protein of unstated origin
To be noted: HL-60 cells; read-out: IC50, binding of HL-60 cells to VCAM-1-IgG fusion protein; cited from earlier work.

Experiment [2] concerns αvβ3 as well as αIIbβIIIa. Conditions: cited from earlier work.
Experiment [3] has as its target T2, α4β1 (Homo sapiens, UniProt P05556+P13612).
T2 construct: host or cells: Jurkat cells (endogenous integrin)
To be noted: Jurkat cells; read-out: IC50, blocking Jurkat cell adhesion to CS-1 coated plates; cited from earlier work.

Experiment [4] has as its target T3, fibronectin (Homo sapiens, UniProt P05556+P13612).
T3 construct: host or cells: Jurkat cells; fibronectin coated on plates
Conditions: cited from earlier work.

Experiment [5] relates to Balb/C female mice. The experiment can be described thus: In vivo ovalbumin delayed type hypersensitivity model. Conditions: ovalbumin in the footpad. The method, then: Balb/C female mice (20-25 g) were immunised on the flank with an emulsion of ovalbumin (Sigma; 0.1 ml subcutaneous injection of 2 mg/ml solution mixed (1:1) with complete Freunds adjuvant; Difco). Seven days later the mice were challenged by subplantar injection of ovalbumin (30 μl of 1% heat aggregated ovalbumin in saline) into the left hind foot pad. Swelling of the foot developed over a 24 hour period following which foot pad thickness was measured and compared to the pre-challenge thickness. The percentage increase in foot pad thickness was calculated. Compounds were delivered by continuous infusion at doses within the range from 10 mg/kg/day to 0.001 mg/kg/day from subcutaneous Alzet osmotic minipumps which were implanted 24 hours prior to the ovalbumin challenge. Inhibition of the inflammatory response was calculated comparing vehicle treated animals and compound treated groups (n=5 animals per group).

Experiment [6] relates to fibronectin. To be noted: cited from earlier work.

Positions of bridges follow the written chain, without caps; N, C: chain ends. Non-standard residues stand in square brackets, D forms with d. Residues, ends and D or L forms follow the SMILES beside them. No end group written: not given here. *: point of attachment. Acetyl(1-adamantyl) = O=C(CC12CC3CC(CC(C3)C1)C2)*; NMeF = CN[C@@H](Cc1ccccc1)C(=O)O Where only a bound is given, the exact number is not on record here.

T1 sequence (P13612 34-1032): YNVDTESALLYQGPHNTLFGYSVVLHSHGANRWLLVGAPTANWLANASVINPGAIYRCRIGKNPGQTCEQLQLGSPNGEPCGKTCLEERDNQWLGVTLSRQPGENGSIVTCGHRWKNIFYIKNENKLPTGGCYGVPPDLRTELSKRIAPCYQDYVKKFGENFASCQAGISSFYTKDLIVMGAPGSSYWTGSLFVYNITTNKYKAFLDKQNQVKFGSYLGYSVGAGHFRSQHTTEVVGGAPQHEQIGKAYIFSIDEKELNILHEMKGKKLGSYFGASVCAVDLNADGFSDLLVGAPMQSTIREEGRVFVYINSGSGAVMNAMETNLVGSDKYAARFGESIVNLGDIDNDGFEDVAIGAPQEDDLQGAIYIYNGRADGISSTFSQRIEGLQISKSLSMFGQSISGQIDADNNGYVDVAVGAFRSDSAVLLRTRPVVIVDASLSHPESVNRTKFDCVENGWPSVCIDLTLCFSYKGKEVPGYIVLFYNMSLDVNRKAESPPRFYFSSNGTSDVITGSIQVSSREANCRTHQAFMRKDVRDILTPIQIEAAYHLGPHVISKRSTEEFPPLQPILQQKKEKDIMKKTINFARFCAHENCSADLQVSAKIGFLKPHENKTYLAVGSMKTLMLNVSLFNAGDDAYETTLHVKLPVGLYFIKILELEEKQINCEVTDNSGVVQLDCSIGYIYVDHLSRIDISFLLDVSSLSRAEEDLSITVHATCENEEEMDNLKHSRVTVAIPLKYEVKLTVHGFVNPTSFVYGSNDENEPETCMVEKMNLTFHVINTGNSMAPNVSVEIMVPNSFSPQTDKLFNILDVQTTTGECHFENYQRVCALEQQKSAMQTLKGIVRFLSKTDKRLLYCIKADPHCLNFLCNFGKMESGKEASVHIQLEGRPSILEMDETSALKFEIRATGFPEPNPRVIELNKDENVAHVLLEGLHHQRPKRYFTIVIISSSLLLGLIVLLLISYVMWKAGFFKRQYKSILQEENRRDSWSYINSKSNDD
T1 sequence (P05556 21-798): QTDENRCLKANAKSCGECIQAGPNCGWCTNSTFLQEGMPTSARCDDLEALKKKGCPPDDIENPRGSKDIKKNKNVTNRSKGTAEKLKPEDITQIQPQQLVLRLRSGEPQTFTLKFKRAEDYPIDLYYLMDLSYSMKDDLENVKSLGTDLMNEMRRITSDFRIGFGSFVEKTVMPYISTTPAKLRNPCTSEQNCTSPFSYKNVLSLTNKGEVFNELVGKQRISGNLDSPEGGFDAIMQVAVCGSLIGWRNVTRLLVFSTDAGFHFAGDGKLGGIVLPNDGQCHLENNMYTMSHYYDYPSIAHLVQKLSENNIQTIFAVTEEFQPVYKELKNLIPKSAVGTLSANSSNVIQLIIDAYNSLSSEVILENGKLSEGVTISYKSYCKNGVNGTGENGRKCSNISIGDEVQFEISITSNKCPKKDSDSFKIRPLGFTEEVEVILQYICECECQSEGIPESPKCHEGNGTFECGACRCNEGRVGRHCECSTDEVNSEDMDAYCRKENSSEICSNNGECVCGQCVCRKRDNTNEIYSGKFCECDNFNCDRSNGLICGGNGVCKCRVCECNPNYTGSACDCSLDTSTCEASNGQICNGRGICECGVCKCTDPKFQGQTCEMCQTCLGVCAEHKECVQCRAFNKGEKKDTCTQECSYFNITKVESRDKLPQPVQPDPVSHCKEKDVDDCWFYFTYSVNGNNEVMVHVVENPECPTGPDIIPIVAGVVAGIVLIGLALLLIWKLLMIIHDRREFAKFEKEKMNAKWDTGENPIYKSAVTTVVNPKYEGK
T2 sequence (P13612 34-1032): as the sequence (P13612 34-1032) above
T2 sequence (P05556 21-798): as the sequence (P05556 21-798) above
T3 sequence (P13612 34-1032): as the sequence (P13612 34-1032) above
T3 sequence (P05556 21-798): as the sequence (P05556 21-798) above

Take “c(Glu-Trp-Leu-Asp-Val-Pro-Glu-Trp-Leu-Asp-Val) (EWLDVPEWLDV; cyclised; printed: Glu-Trp-Leu-Asp-Val-Pro-Glu-Trp-Leu-Asp-Val)”: in experiment [1], the IC50 – broadly, the midpoint of a concentration-inhibition curve – is more than 1000 µM.

For the compound “1-adamantaneacetyl-Cys-Gly-Arg-Gly-Asp-Ser-Pro-Cys ({Acetyl(1-adamantyl)}-CGRGDSPC; disulfide 1-8 (inferred))”, in experiment [2], the “function in αvβ3 as well as αIIbβIIIa-dependent assays” value was “inhibited function”. Moreover, the IC50 in experiment [3] was 30 µM. For the same compound, the “binding of Jurkat cells to fibronectin coated plates” value in experiment [4] is on record as “inhibited the binding”.

As to `CC(C)C[C@@H]1NC(=O)[C@H](Cc2ccccc2)N(C)C(=O)[C@@H](CCCNC(=N)N)NC(=O)[C@@H](CCCNC(=N)N)NC(=O)[C@H](C(C)C)NC(=O)[C@H](CC(=O)O)NC1=O` [compound 20, c(MePhe-Leu-Asp-Val-D-Arg-D-Arg)] (cyclo(DV[dR][dR][NMeF]L)), the “dose required to produce a half-maximal inhibitory response in DTH” value in experiment [5] amounted to 0.01 mg/kg/day.

As to Arg-Cys-Asp-thioproline-Cys, the “leukocyte cell adhesion to fibronectin” value in experiment [6] is on record as “inhibitor”. For the same compound, the “binding to the 120 kDa chymotryptic fragment of fibronectin” value in experiment [6] (fragment contains the Arg-Gly-Asp central cell binding domain) was “inhibited the binding”.

As for “c(Glu-Trp-Leu-Asp-Val-Asp) (EWLDVD; cyclised; printed: Glu-Trp-Leu-Asp-Val-Asp)”, the IC50 in experiment [1] is more than 1000 µM.

On to CLHGPEILDVPST, for which the IC50 in experiment [3] was 30 µM.

With c(Glu-TripLeu-Asp-Val), in experiment [1], the IC50 is 94 µM.
